{
  "source": "patent US20260193644A1",
  "about": "“Compositions and Methods For Modulation of Tumor Suppressors and Oncogenes” (FLAGSHIP PIONEERING INNOVATIONS VII, LLC, priority 2022, published 2026)",
  "key": {"NAMALWA cells": {"tested_on": "NAMALWA cells", "assay": "Chemotaxis assay (trans-well cell migration)", "type": "cell-based", "conditions": "NAMALWA human Burkitt lymphoma cells; 24 hours; SDF-1 (CXCL-12)", "description": "Chemotaxis Assay: NAMALWA cells (human Burkitt lymphoma cell line, ATCC) were cultured in serum-free ATCC formulated RPMI for 24 hr prior to the assay. After starvation, harvest cells and centrifuge at 1,000×g, for 5 minutes to pellet them. Resuspend the cell in a serum-free media. Using Cell Migration/Chemotaxis Assay Kit (96-well, 8 μm) from Abcam, add 150 μL of serum-free media containing desired chemoattractant to the bottom chamber. Then add 50,000 cells and desired inhibitor (or peptides) to each well of the top chamber. Place the plate and incubate at 37° C. in CO2 incubator for 24 hours. After incubation, add 110 μL of Cell Dye+Cell Dissociation Solution mix to each bottom well and incubate at 37° C. in CO2 incubator for an hour. After incubation remove the top chamber and read the plate at Ex/Em=530/590 nm."}, "CXCR4": {"molecular_target": "CXCR4 (Homo sapiens, UniProt P61073)", "sequence (P61073 whole entry)": "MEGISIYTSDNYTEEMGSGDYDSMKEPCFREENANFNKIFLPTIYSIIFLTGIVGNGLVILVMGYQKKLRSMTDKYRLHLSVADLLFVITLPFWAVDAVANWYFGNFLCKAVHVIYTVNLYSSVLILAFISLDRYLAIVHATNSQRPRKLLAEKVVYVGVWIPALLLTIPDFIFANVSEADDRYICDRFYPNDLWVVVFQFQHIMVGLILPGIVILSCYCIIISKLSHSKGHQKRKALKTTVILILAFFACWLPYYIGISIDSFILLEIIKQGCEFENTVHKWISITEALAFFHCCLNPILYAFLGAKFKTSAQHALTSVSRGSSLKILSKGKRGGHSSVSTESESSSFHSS", "assay": "PathHunter β-Arrestin CXCR4 human chemokine GPCR antagonist assay (gpcrMAX screening and hit-confirmation)", "type": "cell-based", "conditions": "for % inhibition: hit-confirmation", "description": "SEQ ID NO: 30949 blocks CXCR4 and cancer cell migration, making it suitable in the treatment of multiple cancers. Whereas SEQ ID NO: 34229 agonizes C3AR1, a key regulator of immune response and inflammation. The target proteins SEQ ID NO: 30949 and SEQ ID NO: 34229 were treated with gpcrMAX, which is a comprehensive panel covering 168 G protein-coupled receptors (GPCRs) from over 60 distinct receptor families. This panel utilizes PathHunter® β-Arrestin technology (Eurofins DiscoverX). PathHunter β-Arrestin GPCR cell lines are engineered to co-express the ProLink™ (PK) tagged GPCR and the Enzyme Acceptor (EA) tagged β-Arrestin. Activation of the GPCR-PK induces β-Arrestin-EA recruitment, forcing complementation of the two β-galactosidase enzyme fragments (EA and PK). The resulting functional enzyme hydrolyzes substrate to generate a chemiluminescent signal.\nCell Handling: PathHunter® cell lines were expanded from freezer stocks according to standard procedures. Cells were seeded in a total volume of 20 μL into white walled, 384-well microplates and incubated at 37° C. for the appropriate time prior to testing. […]\nSignal Detection: Assay signal was generated through a single addition of 12.5 or 15 μL (50% v/v) of PathHunter® Detection reagent cocktail, followed by a one-hour incubation at room temperature. Microplates were read following signal generation with a PerkinElmer Envision™ instrument for chemiluminescent signal detection.\nData Analysis: Compound activity was analyzed using CBIS data analysis suite (ChemInnovation, CA). For agonist mode assays, percentage activity was calculated using the following formula: % Activity=100%×(mean RLU of test sample−mean RLU of vehicle control)/(mean MAX control ligand−mean RLU of vehicle control). For antagonist mode assays, percentage inhibition was calculated using the following formula: % Inhibition=100%×(1−(mean RLU of test sample−mean RLU of vehicle control)/(mean RLU of EC80 control−mean RLU of vehicle control))."}},
  "data": [
    {"substance": "SEQ ID NO: 30949: novel peptide GPCR ligand that blocks CXCR4; sequence only in Sequence Listing (MTAFGLGIPTFLVMQPSGSQPRFPALTQNGVALVRTPLTSVYLRVRICRVLGPRSQPS; listed as Homo sapiens)", "values": [
      {"measurement": "chemotactic migration", "setting": "NAMALWA cells", "result": "significantly inhibit the chemotactic migration"},
      {"measurement": "GPCR ligand mode at CXCR4", "setting": "CXCR4; gpcrMAX panel", "result": "blocked CXCR4"},
      {"measurement": "% inhibition", "setting": "CXCR4; 0.3 μM", "result": "~ 80%"},
      {"measurement": "% inhibition", "setting": "CXCR4; 1 μM", "result": "~ 80%"}
    ]}
  ]
}
